Our source for the Kd values is publication PMC9600339, “Calpain-1: a Novel Antiviral Host Factor Identified in Porcine Small Intestinal Mucus” (mBio, 2022).

Test [1] addresses porcine calpain-1 (pig (Sus scrofa)) (UniProt P35750). Briefly: SPR; calpain-1 immobilised on a CM5 chip by amino coupling (8,860 RU); PEDV S1 protein injected at 100 to 0.8 uM; room temperature; running buffer pH 5.4, 25 mM HEPES, 100 mM NaCl, 3 mM EDTA with 5 mM CaCl2; 1:1 Langmuir model; average KD of triplicates. (Surface plasmon resonance follows binding to a sensor surface in real time, without labels.)

The target in test [2] is recombinant S1 protein of PEDV strain CV777 (S1 domain of the spike protein) (porcine epidemic diarrhea virus, …, UniProt Q91AV1 1-1319, Expressed in a prokaryotic system, so not glycosylated. Construct limits are not printed: S1 is taken by convention as ending at residue 789, with the signal peptide 1-25 removed per UniProt.). The test is described as above. As to conditions: both partners purified.

Where “and” joins values, the source holds several entries; their conditions need not be identical. Identical values can stand only once.

As a reminder, the Kd is a measure of binding affinity in units of concentration.

“protein S1Δb1: PEDV S1 (CV777) lacking the b1 domain (N297 to A337) (from UniProt Q91AV1 1-1319) (domain or fragment)” had a Kd in test [1] of 198 µM. Take “recombinant S1 protein of PEDV strain OH851 (S1 domain of the spike protein) (domain or fragment)”: the Kd in test [1] was found to be 0.787 µM.

B1: porcine calpain-1 (enzyme, pig (Sus scrofa), UniProt P35750 1-714, looked up)
chain: MAEEVITPVYCTGVSAQVQKLRAKELGLGRHENAIKYLGQDYEQLRAHCLQSGSLFRDEAFPPVPQSLGFKELGPNSSKTYGVKWKRPTELFSNPQFIVDGATRTDICQGALGDCWLLAAIASLTLNDTLLHRVVPHGQSFQNGYAGIFHFQLWQFGEWVDVVVDDLLPTKDGKLVFVHSAQGNEFWSALLEKAYAKVNGSYEALSGGSTSEGFEDFTGGVTEWYELRKAPSDLYSIILKALERGSLLGCSIDISSVLDMEAVTFKKLVKGHAYSVTGAKQVNYQGQMVNLIRMRNPWGEVEWTGAWSDGSSEWNGVDPYQRDQLRVRMEDGEFWMSFRDFLREFTRLEICNLTPDALKSQRVRNWNTTLYEGTWRRGSTAGGCRNYPATFWVNPQFKIRLEETDDPEDDYGGRESGCSFVLALMQKHRRRERRFGRDMETIGFAVYEVPPELVGQPVHLKRDFFLANASRARSEQFINLREVSTRFRLPPGEYVVVPSTFEPNKEGDFVLRFFSEKKAGTQELDDQVQAILPDEQVLSEEEIDENFKALFRQLAGEDMEISVRELRTILNRIISKHKDLRTKGFSLESCRSMVNLMDRDGNGKLGLVEFNILWNRIRNYLSIFRKFDLDKSGSMSAYEMRMAIESAGFKLNKKLFELIITRYSEPDLAVDFDNFVCCLVRLETMFRFFKTLDTDLDGVVTFDLFKWLQLTMFA
notes: calpain-1 (catalytic subunit), pig (Sus scrofa); The discussion says in general that calpain-1 is a heterodimer of a catalytic subunit and a regulatory subunit (CAPNS1); also called CAP; p-calpain-1; source: calpain-1 purified from porcine small intestinal mucus fraction III on an antibody column; recombinant p-calpain-1 from HEK 293F, Ni-NTA
Take B1: the Kd in test [2] was 1.07 µM and 2.5 µM.
